Results reported in US20220348932A1.

Target: NADH-dependent methanol dehydrogenase (MeDH) from Bacillus methanolicus MGA3, internal laboratory designation 2315 (tested as purified 2315A) (Bacillus methanolicus MGA3)
Experiment: cell-based or functional assay

ratio of ACT to MeDH in an in vitro methanol dehydrogenase activation test (5 M methanol, 2 mM NAD, 10 µM MeDH 2315A, pH 7.4) (ACT:MeDH ratio): 10
Substance: activator protein (ACT) from Bacillus methanolicus MGA3, internal laboratory designation 2317 (tested as purified 2317A) (enzyme)
